The record followed here is patent publication US20240034813A1 (Janssen / Centocor, published 2024).

The target in experiment [1] is T1, recombinant cMet/HGFR with c-terminal His-tag, Cy5-labeled (UniProt P08581 25-932, limits assumed, Cy5 label (reacted with Cy5 Mono NHS Ester; sites not stated)).
T1 construct: Commercial protein; also called Cy5-c-MET; Cy5-labeled c-MET antigen; not shown: C-terminal His-tag
The experiment in a line: competitive TR-FRET (Eu-amivantamab/Cy5-c-MET), EC50 ratio vs Reference Material; Ex. 11 drug product, 12 months at 5 C. From the text:
(§1) In this procedure, varying concentrations of unlabeled bispecific EGFR-cMet antibody sample compete with donor fluorophore (Europium (Eu) chelate) labeled bispecific EGFR-cMet antibody for binding to an acceptor fluorophore (Cy5)-labeled c-MET antigen. Excitation of the donor fluorophore results in a transfer of energy to the bound acceptor fluorophore (FRET process). The resultant FRET is detected by emission of light at 665 nm using a microplate reader capable of measuring time-resolved fluorescence. Sample dose response curves are compared to the Reference Material (RM).
(§2) c-MET Binding Materials and Methods. Certified commercial cMet, a recombinant cMet/HGFR with c-terminal His-tag is reacted with certified commercial Cy5 Mono NHS Ester to produce Cy5-labeled c-MET. Validated bispecific EGFR-cMet antibody is reacted with certified commercial Europium (Eu) chelate to produce Eu labeled bispecific EGFR-cMet antibody. […] Fluorescence is then measured by spectrophotometry at 665 nm, plotted against antibody concentration and analyzed by a four-parameter logistic model. The antibody concentration required to obtain half of the maximum fluorescence response (EC50) is determined for RM, assay control and samples. The potencies of assay control and samples are calculated based on the ratio of the sample (or control) and RM EC50 values and reported as a percentage activity relative to the RM.
A general note: In TR-FRET formats the signal depends on donor and acceptor labels being close together.

Experiment [2] addresses T2, recombinant human EGFR/ErbB1/HER1 with C-terminal His tag, Cy5-labeled (human, UniProt P00533 25-645, Cy5 label (reacted with Cy5 Mono NHS Ester; sites not stated)).
T2 construct: Commercial protein; also called Cy5-EGFR; Cy5-labeled EGFR antigen; not shown: C-terminal His tag
The experiment in a line: competitive TR-FRET (Eu-amivantamab/Cy5-EGFR), EC50 ratio vs Reference Material; Ex. 2 Formulation 3 (acetate), T0, 5 C table.
Text: (§3) In this procedure, varying concentrations of unlabeled bispecific EGFR-cMet antibody sample compete with donor fluorophore (Europium (Eu) chelate) labeled bispecific EGFR-cMet antibody for binding to an acceptor fluorophore (Cy5)-labeled EGFR antigen. Excitation of the donor fluorophore results in a transfer of energy to the bound acceptor fluorophore (FRET process). The resultant FRET is detected by emission of light at 665 nm using a microplate reader capable of measuring time-resolved fluorescence. Sample dose response curves are compared to the RM.
as §2, with “EGFR” for “c-MET”, “EGFR,” for “cMet,”, “human EGFR/ErbB1/HER1” for “cMet/HGFR”, “C-terminal His tag” for “c-terminal His-tag”, “EGFR.” for “c-MET.”, “Eu-labeled” for “Eu labeled”

Experiment [3] deals with T2, recombinant human EGFR/ErbB1/HER1 with …. The experiment in a line: competitive TR-FRET (Eu-amivantamab/Cy5-EGFR), EC50 ratio vs Reference Material; Ex. 12 drug product with rHuPH20, 12 months at 5 C.
Text: as §3
as §2, with “EGFR” for “c-MET”, “EGFR,” for “cMet,”, “human EGFR/ErbB1/HER1” for “cMet/HGFR”, “C-terminal His tag” for “c-terminal His-tag”, “EGFR.” for “c-MET.”, “Eu-labeled” for “Eu labeled”

For experiment [4] the target is unchanged. Kind of experiment: competitive TR-FRET (Eu-amivantamab/Cy5-EGFR), EC50 ratio vs Reference Material; Ex. 2 Formulation 2 (50 mM histidine), T0, 40 C table.
Text: as §3
as §2, with “EGFR” for “c-MET”, “EGFR,” for “cMet,”, “human EGFR/ErbB1/HER1” for “cMet/HGFR”, “C-terminal His tag” for “c-terminal His-tag”, “EGFR.” for “c-MET.”, “Eu-labeled” for “Eu labeled”

Experiment [5] has as its target T1, recombinant cMet/HGFR with c-terminal …. The experiment in a line: competitive TR-FRET (Eu-amivantamab/Cy5-c-MET), EC50 ratio vs Reference Material; Ex. 12 drug product with rHuPH20, 0 months, 5 C table.
Text: as §1, §2

For experiment [6], the target named is T2, recombinant human EGFR/ErbB1/HER1 with …. Kind of experiment: competitive TR-FRET (Eu-amivantamab/Cy5-EGFR), EC50 ratio vs Reference Material; Ex. 12 drug product with rHuPH20, 0 months, 40 C table.
Text: as §3
as §2, with “EGFR” for “c-MET”, “EGFR,” for “cMet,”, “human EGFR/ErbB1/HER1” for “cMet/HGFR”, “C-terminal His tag” for “c-terminal His-tag”, “EGFR.” for “c-MET.”, “Eu-labeled” for “Eu labeled”

Experiment [7] shares this target. Kind of experiment: competitive TR-FRET (Eu-amivantamab/Cy5-EGFR), EC50 ratio vs Reference Material; Ex. 2 Formulation 2 (50 mM histidine), 3 months at 25 C.
Text: as §3
as §2, with “EGFR” for “c-MET”, “EGFR,” for “cMet,”, “human EGFR/ErbB1/HER1” for “cMet/HGFR”, “C-terminal His tag” for “c-terminal His-tag”, “EGFR.” for “c-MET.”, “Eu-labeled” for “Eu labeled”

Experiment [8] shares this target. The experiment in a line: competitive TR-FRET (Eu-amivantamab/Cy5-EGFR), EC50 ratio vs Reference Material; Ex. 3 acetate formulation, 6 months at 25 C then shaking up to 72 h.
Text: as §3
as §2, with “EGFR” for “c-MET”, “EGFR,” for “cMet,”, “human EGFR/ErbB1/HER1” for “cMet/HGFR”, “C-terminal His tag” for “c-terminal His-tag”, “EGFR.” for “c-MET.”, “Eu-labeled” for “Eu labeled”

B1: amivantamab (bispecific antibody, human IgG1, kappa)
heavy 1: not shown
light 1: not shown
heavy 2: not shown
light 2: DIQMTQSPSSVSASVGDRVTITCRASQGISNWLAWFQHKPGKAPKLLIYAASSLLSGVPSRFSGSGSGTDFTLTISSLQPEDFATYYCQQANSFPITFGQGTRLEIKRTVAAPSVFIFPPSDEQLKSGTASVVCLLNNFYPREAKVQWKVDNALQSGNSQESVTEQDSKDSTYSLSSTLTLSKADYEKHKVYACEVTHQGLSSPVTKSFNRGEC
notes: The samples tested were high concentration (160 mg/mL) formulations, fresh or stored or stressed; also called JNJ-61186372; bispecific EGFR-cMet antibody
For the molecule B1, the “cMET Binding activity relative to Reference Material (%)” value in experiment [1] came to 98%; in experiment [5] it was 91%. Also, the “EGFR Binding % activity relative to RM” value in experiment [2] stood at 103%; in experiment [4] it was 103%; in experiment [7] it was 77%; in experiment [8], 86%. For the same molecule, the “EGFR Binding activity relative to Reference Material (%)” value in experiment [3] stood at 94%; in experiment [6] it was 92%.
